Measured values as given in the supplement of paper PMC12042874.
± gives the uncertainty stated by the source.

Test: amyloid nucleation score (Sup35N fusion, yeast selection) (log enrichment); library NNK1; higher = more nucleation; inactive = no reads after selection
Outline: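 In psi-negative yeast, Sup35N fusions carrying peptides of 20 random codons were induced with 100 μM copper sulfate for 24 hours. The cells then grew 7 days at 30°C on medium lacking adenine and uracil, and plasmid inserts from input and output were Illumina-sequenced, excluding sequences with under 100 input reads. Nucleation score is the DiMSum log enrichment of output over input reads, centred on the mode score of non-aggregating sequences.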

Substance | amyloid nucleation score
FYTCCMSYVVWIMHVRRLAG | 0.774 ± 0.56
GACLWGT | 0.338 ± 0.29
GAILENYALFESRTYFMLHC | 0.383 ± 0.66
GALFWVIPIMLLMRSGLLDP | 0.498 ± 0.3
GAPRSCGLAD | 0.27 ± 0.63
GATTMFEVGICNENRKVYVE | -0.179 ± 0.29
GCFMLSSGLGISEPGSFWWG | 0.224 ± 0.53
GCFRGPTGLCG | -0.271 ± 0.66
GCMAPNCCGWEGVDEMSWVR | -0.013 ± 0.84
GCRGSFVEGWIAHMADGSFI | -0.577 ± 0.57
GCRPMSFKMSVAVGHLMGDT | 2.79 ± 0.2
GCSLLHLRVWYLSDHIIMRS | 0.834 ± 0.36
GDMFVAKCYSRGDSQISLMF | 0.368 ± 0.37
GDRKACSVRCRHATDKICAD | -0.309 ± 0.57
GDSYVRHRMDP | inactive
GDYVRWVRSGYLMQLLNEDS | -0.379 ± 0.75
GDYYACGPTCGSRAAFPGVG | -0.383 ± 0.59
GEFESSNVRSACSGGYFRAA | -0.186 ± 0.88
GEKYNIFNFGFVLCSSLVLF | 8.116 ± 0.049
GEVSRWRMCGLSLMEGRGLQ | 0.733 ± 0.44
GFCFCCRSGYARVIRFEART | -0.17 ± 0.48
GFDFMWGGGFRNSRNRFQLS | 0.428 ± 0.6

Substance | amyloid nucleation score
GFDIMYLILTPSCPATQSGM | inactive
GFFGFIGRVMVIGRWREVPG | -0.265 ± 0.24
GFFVNNCLFSILLDFWVSEE | 1.24 ± 0.26
GFIQWLMLWRVFFSM | -0.681 ± 0.39
GFIVTGNVGTFNALLERVLT | 4.04 ± 0.13
GFKGILTYGRGVLVHFYRPQ | 0.09 ± 0.35
GFLVSEGFLIVGLLIRVRGL | 0.641 ± 0.37
GFMICVADTGTANSSYVDVF | -0.201 ± 0.36
GFMVDERSTIVEDLPRSADV | -0.913 ± 0.34
GFRQVSCHHHWGGNSWMCR | 0.717 ± 0.19
GFRSGSCGFGIL | -1.14 ± 0.48
GFSLSPRAWRTGGVWAECAE | 0.7 ± 0.82
GFSSMGCSVRNSHTAHGGCG | 1.73 ± 0.17
GFSSMRYEGFGTGKCVDFLS | 0.281 ± 0.22
GFVEYYRVLTYDKM | 1.22 ± 0.88
GFVPLWLW | 0.977 ± 0.8
GGAHSY | 0.233 ± 0.5
GGELMAFTA | 0.553 ± 0.49
GGFFRHGEIDMYRCSSEWFL | 0.77 ± 0.97
GGIVLDTTHRVGYGRTSPCV | 0.289 ± 1.2
GGIYANYNFGYLARTESGLG | 1.04 ± 0.7
GGLKMTP | 0.393 ± 0.25

Substance | amyloid nucleation score
GGRNWFYRALR | 0.362 ± 0.63
GGSGDTTSCMLFKRIVRR | inactive
GGVISESTGYLRLIHRRWDG | -0.751 ± 1.7
GGYRVLIFSIFRG | 0.599 ± 0.51
GHCGPEKREIDVAGVWVERS | -0.098 ± 1.3
GHDLSVPWRTDWLRGL | 0.177 ± 1.2
GHGYCLSWFNGNDPRGTTTT | 1.1 ± 0.7
GHISIMVHYLFVSTHSSQED | 4.46 ± 0.13
GHWLYMTYLCL | 0.459 ± 0.75
GIFHANLTMVWRHIEVKEGC | 0.696 ± 0.92
GIGLGFQ | -0.563 ± 0.53
GILLRH | -0.742 ± 1.2
GINNIYGLRYRHMPTSSIVA | 1.88 ± 0.39
GIRPNFTVRFGGSWSQRNDR | 0.749 ± 0.47
GISLSLVVERSGK | 1.49 ± 0.21
GIYTFFVGTKFC | 0.65 ± 0.5
GKAASRNGGMWKEMRFEACD | 0.046 ± 0.42
GKEPVACRIPNKA | 1.17 ± 0.3
GKHGQDFNSYRRVWLKSYLC | 1.07 ± 0.52
GKLVVFNFL | 8.483 ± 0.048
GKNTYVCVGSSASSFWGSLL | 0.86 ± 0.77
GKNWSFLTSYFCWFTLKIH | 1.4 ± 0.35

Substance | amyloid nucleation score
GKSMYCYK | -0.96 ± 2.7
GKTISGL | 0.239 ± 0.44
GLCMEYTVWWVWSWITLRVD | -0.294 ± 0.26
GLGCYVKNKTHESYARSTAH | -0.671 ± 0.56
GLKGDIWDMGYSFGWRDGDA | 0.297 ± 0.51
GLLVGLQQCYNYGWKGSDCN | 0.504 ± 0.75
GLMNSRYMYVVNMS | 0.758 ± 0.4
GLNCSGNGEVIWQP | -0.403 ± 1.4
GLQFSFVEFFSLYVESEDHY | 0.332 ± 0.35
GLRATVYITLRFE | -0.442 ± 0.43
GLRDACFSVLPVYLWVSNGD | 0.281 ± 0.55
GLRSESRKRGGGGGVAREVG | -0.053 ± 0.86
GLVSRLCRFHFMCIACNPKL | 0.585 ± 0.43
GLWLQL | 0.216 ± 0.26
GMCSEGTFKRQLISMHTCRT | 0.247 ± 0.79
GMLDAY | inactive
GMNPQTHAPVILTLGVQNIR | 2.2 ± 0.14
GMPGHFLLLKLGYFANRTNR | -1.25 ± 1.1
GMRVLQIFGTGGGDSNTRGD | 0.84 ± 0.36
